The test system of this assay is HUVECs. The assay can be described thus: Blood vessel (tube) formation assay on Matrigel. It counts as cell-based, human. The note with it: 4 hours, vs. control. On the procedure:
HUVECs (20,000 cells/well) were seed on a layer of previously polymerized Matrigel and treated with or without the first peptide and the second peptide. The Matrigel culture was incubated at 37° C. After 4 hours, changes in cell morphology were captured using a phase-contrast microscope (×40). Each sample was assayed in duplicate, and independent experiments were repeated three times. *P<0.05, **P,0.01, ***P<0.001 (vs. control).
HUVECs (20,000 cells/well) were seeded on a layer of previously polymerized Matrigel, treated with the visfatin-derived peptides, and then incubated in a 5% CO2 incubator at 37° C. for 4 hours. Then, changes in the cell morphology were observed and photographed using a phase-contrast microscope at 40× magnification. Each sample was assayed in duplicate, and independent experiments were repeated three times. Angiogenesis was analyzed with ImageJ software using an angiogenesis analyzer (Bethesda, MD, USA).

B1: visfatin (protein, UniProt P43490 1-491, looked up)
Nicotinamide …: MNPAAEAEFNILLATDSYKVTHYKQYPPNTSKVYSYFECREKKTENSKLRKVKYEETVFYGLQYILNKYLKGKVVTKEKIQEAKDVYKEHFQDDVFNEKGWNYILEKYDGHLPIEIKAVPEGFVIPRGNVLFTVENTDPECYWLTNWIETILVQSWYPITVATNSREQKKILAKYLLETSGNLDGLEYKLHDFGYRGVSSQETAGIGASAHLVNFKGTDTVAGLALIKKYYGTKDPVPGYSVPAAEHSTITAWGKDHEKDAFEHIVTQFSSVPVSVVSDSYDIYNACEKIWGEDLRHLIVSRSTQAPLIIRPDSGNPLDTVLKVLEILGKKFPVTENSKGYKLLPPYLRVIQGDGVDINTLQEIVEGMKQKMWSIENIAFGSGGGLLQKLTRDLLNCSFKCSYVVTNGLGINVFKDPVADPNKRSKKGRLSLHRTPAGNFVTLEEGKGDLEEYGQDLLHTVFKNGKVTKSYSFDEIRKNAQLNIELEAAHH
notes: 55 kDa cytokine secreted from adipocytes, used as positive control
On to B1, for which the “number of master junctions (tube formation)” value (second peptide except at the 2.0 μM concentration) is “significantly increased”. For the same molecule, the “number of meshes (tube formation)” value (positive controls) is given as “not significantly changed”.

Values taken from US20260166130A1, “PEPTIDE COMPOSITION HAVING ANGIOGENIC ACTIVITY, AND PHARMACEUTICAL COMPOSITION USING SAME AND COSMETIC COMPOSITION USING SAME” (LABTOMEDI CRO CO.,LTD., priority 2022, published 2026).
